Test results: patent publication US20130280162A1 (IFOM FONDAZIONE ISTITUTO FIRC DI ONCOLOGIA MOLECOLARE, published 2013)

Experiments:
vitronectin (VN) = molecular target: T1, vitronectin (VN) (human, UniProt P04004 20-478); experiment: plate assay: uPAR/mFc (5 nM) with increasing uPA on immobilized VN (FIG. 4C)
T1 construct: also called immobilized VN
Description: 96-well immuno plates (NUNC MaxiSorb, blackwell) were coated with pro-uPA or VN (100 μl, 10 nM) diluted in coating buffer (50 mM sodium carbonate, pH 9.6) at 4° C. ON. Plates were washed with wash buffer (phosphate buffered saline (PBS) containing 0.1% Tween-20 (PBS-T)) and non-specific binding sites blocked (0.15 ml/well) with blocking buffer (PBS containing 2% bovine serum albumin (BSA)) for 1-2 hour at RT. […] The binding was allowed to occur for 1-2 hours at RT and the plates washed three times with wash buffer. Bound uPAR/mFc was detected by sequential incubations with a biotinylated goat anti-mouse Fc antibody (Sigma) and Eu³⁺ labeled streptavidin (Perkin Elmer). Bound Eu³⁺ was quantified by dissociation-enhanced time-resolved fluorescence measurement using an Envision Xcite plate reader (Perkin Elmer) using the DELFIA protocol.
To test the activity of uPAR-lock as an antagonist of the uPAR:VN-interaction the author utilized a binding assay in which uPAR/mFc is allowed to bind immobilized VN in the presence of uPA (FIG. 4C). In this assay uPAR/mFc binds to immobilized VN with high affinity in an uPA-dependent manner. To test the activity of uPAR-lock the author conducted the experiment with a fixed concentration of uPAR/mFc (1 nM) and an excess of uPA (5 nM) mixed with increasing concentrations of uPAR-lock or uPA for comparison (FIG. 4D). […]

[1] = molecular target: T2, urokinase-type plasminogen activator (uPA) (human, UniProt P00749 21-431); experiment: plate assay: increasing uPAR/mFc on immobilized uPA, anti-mouse Fc and Eu-streptavidin (FIG. 4A)
T2 construct: also called pro-uPA; immobilized uPA
Description: Immobilized uPA was incubated with increasing concentrations of uPAR tagged with a mouse Fc (uPAR/mFc). After washing bound uPAR/mFc was quantified using a biotinylated anti-mouse Fc antibody and Europium labeled streptavidin. Note that uPAR/mFc display specific high-affinity binding to immobilized uPA.
96-well immuno plates (NUNC MaxiSorb, blackwell) were coated with pro-uPA or VN (100 μl, 10 nM) diluted in coating buffer (50 mM sodium carbonate, pH 9.6) at 4° C. ON. Plates were washed with wash buffer (phosphate buffered saline (PBS) containing 0.1% Tween-20 (PBS-T)) and non-specific binding sites blocked (0.15 ml/well) with blocking buffer (PBS containing 2% bovine serum albumin (BSA)) for 1-2 hour at RT. After washing with PBS-T, wells were incubated with uPAR/mFc (1 nM) in the presence or absence of the agonists and antagonists to be tested prepared in dilution buffer (PBS containing 1% BSA). The binding was allowed to occur for 1-2 hours at RT and the plates washed three times with wash buffer. Bound uPAR/mFc was detected by sequential incubations with a biotinylated goat anti-mouse Fc antibody (Sigma) and Eu³⁺ labeled streptavidin (Perkin Elmer). Bound Eu³⁺ was quantified by dissociation-enhanced time-resolved fluorescence measurement using an Envision Xcite plate reader (Perkin Elmer) using the DELFIA protocol.

T1 sequence (P04004 20-478): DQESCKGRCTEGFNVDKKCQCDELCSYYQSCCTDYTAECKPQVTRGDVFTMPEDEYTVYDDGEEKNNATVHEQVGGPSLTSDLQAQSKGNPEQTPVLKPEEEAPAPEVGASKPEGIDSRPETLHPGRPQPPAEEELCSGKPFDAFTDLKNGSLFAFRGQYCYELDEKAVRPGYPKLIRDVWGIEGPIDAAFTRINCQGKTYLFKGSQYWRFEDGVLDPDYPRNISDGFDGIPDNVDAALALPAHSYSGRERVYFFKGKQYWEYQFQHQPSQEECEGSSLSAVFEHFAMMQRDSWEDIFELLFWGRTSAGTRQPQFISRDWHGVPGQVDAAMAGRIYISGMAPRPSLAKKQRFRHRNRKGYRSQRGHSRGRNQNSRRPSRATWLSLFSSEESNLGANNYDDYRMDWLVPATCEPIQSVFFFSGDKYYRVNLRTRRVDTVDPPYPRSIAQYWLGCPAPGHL

B1: uPAR/mFc (human uPAR tagged with a murine immunoglobulin heavy chain constant region) (Fc fusion)
chain: LRCMQCKTNGDCRVEECALGQDLCRTTIVRLWEEGEELELVEKSCTHSEKTNRTLSYRTGLKITSLTEVVCGLDLCNQGNSGRAVTYSRSRYLECISCGSSDMSCERGRHQSLQCRSPEEQCLDVVTHWIQEGEEGRPKDDRHLRGCGYLPGCPGSNGFHNNDTFHFLKCCNTTKCNEGPILELENLPQNGRQCYSCKGNSTHGCSSEETFLIDCRGPMNQCLVATGTHEPKNQSYMVRGCATASMCQHAHLGDAFSMNHIDVSCCTKSGCNHPDLDLEVLFQGPLEAGAG
notes: also called uPAR tagged with a mouse Fc; Fc-tagged uPAR; not shown: mouse immunoglobulin IgG1 heavy chain, amino acids 216-441 numbered according to Adetugbo 1978 (clone IRAVp968B035D); th
Does B1 bind (vitronectin (VN))?
Result: binds

Does B1 bind [1]?
Result: binds
